From article PMC10580588 come the findings set out here.

The target in the assay is FLAG-tagged full-length senataxin (SETX) (human) (UniProt Q7Z333). The assay is described as follows: co-IP; SETX immunoprecipitated, the IP'd material treated with or without RNase A; bands measured by densitometry; IgG only IP as negative control.
Sequence of UniProt Q7Z333 (Q7Z333 whole entry): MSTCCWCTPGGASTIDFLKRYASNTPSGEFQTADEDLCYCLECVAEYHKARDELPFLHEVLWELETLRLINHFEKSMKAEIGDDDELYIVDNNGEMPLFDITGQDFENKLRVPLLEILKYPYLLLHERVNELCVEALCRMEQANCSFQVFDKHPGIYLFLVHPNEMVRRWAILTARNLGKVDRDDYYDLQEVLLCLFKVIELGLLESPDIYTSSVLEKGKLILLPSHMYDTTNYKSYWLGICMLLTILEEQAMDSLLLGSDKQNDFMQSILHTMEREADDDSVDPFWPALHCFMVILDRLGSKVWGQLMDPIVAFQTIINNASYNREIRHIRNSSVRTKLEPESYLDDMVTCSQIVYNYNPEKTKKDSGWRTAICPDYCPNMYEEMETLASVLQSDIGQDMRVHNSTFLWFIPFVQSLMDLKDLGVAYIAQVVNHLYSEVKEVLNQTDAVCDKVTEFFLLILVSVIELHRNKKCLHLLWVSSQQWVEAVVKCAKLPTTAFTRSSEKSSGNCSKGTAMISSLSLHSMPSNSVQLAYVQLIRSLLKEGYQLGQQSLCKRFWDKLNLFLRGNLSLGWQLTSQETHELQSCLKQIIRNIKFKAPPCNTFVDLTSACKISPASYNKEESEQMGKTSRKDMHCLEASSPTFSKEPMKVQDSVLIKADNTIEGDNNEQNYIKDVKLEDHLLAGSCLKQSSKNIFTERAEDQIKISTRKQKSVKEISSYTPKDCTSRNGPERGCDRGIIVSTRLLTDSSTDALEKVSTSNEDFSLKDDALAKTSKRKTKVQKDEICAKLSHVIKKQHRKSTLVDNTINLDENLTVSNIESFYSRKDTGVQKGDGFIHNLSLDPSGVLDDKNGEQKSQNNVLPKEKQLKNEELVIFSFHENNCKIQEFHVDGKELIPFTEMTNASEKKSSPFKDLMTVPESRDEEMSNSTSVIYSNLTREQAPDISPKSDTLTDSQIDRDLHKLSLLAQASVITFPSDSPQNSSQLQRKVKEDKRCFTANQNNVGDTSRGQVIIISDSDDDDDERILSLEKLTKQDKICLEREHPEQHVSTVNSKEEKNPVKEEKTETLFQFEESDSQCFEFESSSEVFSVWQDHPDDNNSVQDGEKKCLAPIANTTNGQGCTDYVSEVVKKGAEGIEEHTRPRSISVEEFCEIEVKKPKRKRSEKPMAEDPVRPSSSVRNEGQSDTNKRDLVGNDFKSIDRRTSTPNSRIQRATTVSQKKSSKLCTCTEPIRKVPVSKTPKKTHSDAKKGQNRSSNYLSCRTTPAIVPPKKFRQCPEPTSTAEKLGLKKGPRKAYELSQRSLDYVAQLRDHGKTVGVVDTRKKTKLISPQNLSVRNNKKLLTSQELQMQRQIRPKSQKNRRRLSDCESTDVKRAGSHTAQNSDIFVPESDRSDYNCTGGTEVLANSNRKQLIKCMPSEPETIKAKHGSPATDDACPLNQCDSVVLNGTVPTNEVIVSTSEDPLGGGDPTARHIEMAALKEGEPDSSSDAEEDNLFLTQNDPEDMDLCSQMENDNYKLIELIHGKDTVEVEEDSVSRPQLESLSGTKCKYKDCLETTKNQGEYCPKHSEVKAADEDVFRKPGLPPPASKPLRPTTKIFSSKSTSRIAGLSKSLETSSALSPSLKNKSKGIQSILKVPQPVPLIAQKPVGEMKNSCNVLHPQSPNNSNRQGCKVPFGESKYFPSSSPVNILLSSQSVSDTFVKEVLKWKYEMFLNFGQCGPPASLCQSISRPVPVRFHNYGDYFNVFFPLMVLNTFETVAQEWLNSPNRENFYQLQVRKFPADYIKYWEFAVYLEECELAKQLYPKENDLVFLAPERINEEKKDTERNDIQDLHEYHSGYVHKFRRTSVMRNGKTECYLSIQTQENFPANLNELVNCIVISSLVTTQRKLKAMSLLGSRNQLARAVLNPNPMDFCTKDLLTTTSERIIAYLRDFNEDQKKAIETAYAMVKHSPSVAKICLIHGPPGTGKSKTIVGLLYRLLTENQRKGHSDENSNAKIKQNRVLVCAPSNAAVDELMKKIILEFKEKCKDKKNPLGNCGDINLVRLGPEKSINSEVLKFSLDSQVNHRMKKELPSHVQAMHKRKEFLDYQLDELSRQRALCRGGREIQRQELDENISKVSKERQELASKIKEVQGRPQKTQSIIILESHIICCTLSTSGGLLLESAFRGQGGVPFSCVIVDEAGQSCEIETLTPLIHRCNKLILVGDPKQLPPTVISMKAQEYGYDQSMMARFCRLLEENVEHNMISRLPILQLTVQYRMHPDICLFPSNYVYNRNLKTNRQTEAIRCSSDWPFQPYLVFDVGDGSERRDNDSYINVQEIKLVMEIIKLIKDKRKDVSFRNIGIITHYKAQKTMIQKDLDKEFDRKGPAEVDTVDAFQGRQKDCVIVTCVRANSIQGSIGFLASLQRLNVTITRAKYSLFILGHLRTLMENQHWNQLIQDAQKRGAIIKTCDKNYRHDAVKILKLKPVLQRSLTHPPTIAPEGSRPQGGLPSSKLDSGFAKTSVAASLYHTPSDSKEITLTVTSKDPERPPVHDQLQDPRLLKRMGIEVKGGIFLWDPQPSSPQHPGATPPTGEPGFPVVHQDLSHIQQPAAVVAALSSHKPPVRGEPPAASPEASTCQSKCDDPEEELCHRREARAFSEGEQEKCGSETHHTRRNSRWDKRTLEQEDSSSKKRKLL

The substance GFP-GR30 (peptide) had a percent reduction of the co-IP band upon RNase A treatment of 32%.
